Assay results as given in patent US20240398899A1 (priority 2021, published 2024).

Legend:
neuronal cells (pc12) = assay: Neurite formation against MPP+ induced damage; type: cell-based, rat; settings: NGF (200 ng/ml) + MPP (100 μM)
Method: Cells were counted using haemocytometer and plated in 24-well plates at the densities corresponding to 1×10^4 cells/well/500 μl of the growth medium. The cells were then incubated for 48 h in 5% CO2 incubator at 37° C. Effect of Recombinant Lectin having SEQ ID NO: 1 on neurite formation was evaluated in both basal and MPP+ damage induced model.
The percent protection in neurite formation against MPP+ induced damage was determined as follows:
[formula] • Where, • A=No of neurites in Cells treated with NGF+SEQ ID NO: 1+MPP+ • B=No of neurites in Cells treated with NGF+MPP+ • C=No of Neurites Cells treated with NGF alone

MPO = assay: Alzheimer's biomarker multiplex analysis, scopolamine-damaged SH-SY5Y; type: cell-based, human; settings: Scopolamine (4 mM)
Method: (§1) After overnight incubation as in the previous examples, cells were treated with recombinant lectin protein having SEQ ID NO: 1 at different concentrations ranging from 0.001 μg/ml-1 μg/ml for 24 h for Parkinson disease and 0.01 μg/ml-25 μg/ml for 24 h for Alzheimer's disease. • Parkinson Disease: After 24 h of pre-treatment with recombinant lectin protein having SEQ ID NO: 1, cells were exposed (MPP+) for another 24 h. Cells treated with MPP+Iodide were included as Control. […] The cells treated with Galantamine were included as positive Control.
(§2) The levels of markers were determined by multiplex analysis as: Cell culture supernatants were diluted (1:2) with Calibrator Diluent. 50 μl of standard or sample was added per well. 50 μl of the microparticle cocktail was added to each well of the microplate and covered with a foil plate sealer. The plate was incubated for 2 hours at room temperature on a horizontal orbital microplate shaker. The plate was washed using a magnetic device designed to accommodate a microplate. Washing was done by applying the magnet to the bottom of the microplate, allowing 1 minute before removing the liquid, filling each well with wash buffer (100 μl) and allowing 1 minute before removing the liquid again. 50 μl of diluted Biotin-Antibody Cocktail was added to each well. Covered the plate with a foil plate sealer and incubated for 1 hour at room temperature on the shaker. Repeated the wash step. 50 μl of diluted Streptavidin-PE was added to each well. The plate was securely covered with a foil plate sealer and incubated for 30 minutes at room temperature on the shaker. Repeated the wash step. The microparticles were resuspended by adding 100 μl of Wash Buffer to each well. The plate was incubated for 2 minutes on the shaker and read within 90 minutes using Magpix® multiplex machine. Levels of biomarkers for Parkinson's and Alzheimer's disease were estimated using Magpix® multiplex machine.
(§3) For Alzheimer's disease the percent modulation in each sample was determined as follows: […]

RAGE = assay: as above; type: cell-based, human; settings: Scopolamine (4 mM)
Method: as §1, §2, §3

b-NGF = assay: as above; type: cell-based, human; settings: Scopolamine (4 mM)
Method: as §1, §2, §3

Swiss albino mice = assay: Passive avoidance test, scopolamine induced dementia; type: in vivo, Mus musculus (Swiss Albino)
Method: Required amount of recombinant lectin protein having SEQ ID NO: 1 was diluted in sterile Tris Buffered Saline (TBS) to achieve desired final concentration, i.e 0.1 mg/mL, 0.05 mg/mL, 0.025 mg/mL, at the doses of 0.5 mg/kg, 0.25 mg/kg and 0.125 mg/kg respectively. Formulation was prepared fresh daily.
TBS buffer and 0.5% CMC were used as a vehicle for preparation of test item, recombinant Lectin having SEQ ID NO: 1 and reference item formulation, respectively Male Mus musculus (Swiss Albino) aged between 8-10 weeks procured from GENTOX Bio services Pvt Ltd, Hyderabad. Animals were classified into 6 groups and acclimatized for two weeks. Animals were identified by cage labelling and tail marking and were randomized on the basis of their body weight.
Healthy male Swiss albino mice (n=48) were selected and randomized based on body weight (n=8 per Group) into 6 groups as mentioned in table no-1. The control group G1 was treated intravenously with vehicle daily till the experiment completion. Group G2 was considered as negative control and treated with vehicle. […] Group G4, G5 &G6 animals were treated with the test item recombinant lectin protein having SEQ ID NO: 1 at the dose of 0.5 mg/kg, 0.25 mg/kg and 0.125 mg/kg, respectively. All the test items were given intravenously (i.v) daily at the dose volume of 5 ml/kg for 14 Days. The body weight was recorded daily throughout the experimental period. […] One hour after the last dose of test items (on Day 14) all the animals were injected with scopolamine hydrobromide at the dose of 2.5 mg/kg, i.p., except the normal control group G1. Passive avoidance test was conducted 30 min after scopolamine injection.
This learning and memory test were performed in two chambers, which has square boxes, identical size, juxtaposed as illuminated and dark. A lamp was placed above one chamber for illumination. Each test involved two separate trials, a training trial and a test trial.
For the training trial, the mice were initially placed in the illuminated chamber. When the mice entered the dark chamber, an electrical shock (0.5 mA) for 3 sec. was delivered through stainless steel rods. The latency times once the mice entered from light compartment to the dark compartment was recorded using in-build timer. A test trial was performed 24 h following the training trial, and latency times to re-enter the dark chamber was measured up to 5 min

B1: SEQ ID NO: 1: variant of the S. rolfsii lectin amino acid sequence (reported as Rec-2 in WO2010/095143) (protein)
chain: TYKITVRVYQTNPDAFFHPVEKTVWKYANGGTWTITDDQHVLTMGGSGTSGTLRFHADNGESFTATFGVHNYKRWCDIVTNLAADETGMVINQQYYSQKNREEARERQLSNYQVKNAKGRNFQIVYTEAEGNDLHANLIIG
Neuronal cells (pc12); 0.001 μg/ml
  % Protection in formation of Neurites (w.r.t. MPP+): 7.3%
  Average No. of Neurites: 21
Neuronal cells (pc12); 0.01 μg/ml
  % Protection in formation of Neurites (w.r.t. MPP+): 43.6%
  Average No. of Neurites: 28
Neuronal cells (pc12); 0.1 μg/ml
  % Protection in formation of Neurites (w.r.t. MPP+): 76.4%
  Average No. of Neurites: 34
Neuronal cells (pc12); 1 μg/ml
  % Protection in formation of Neurites (w.r.t. MPP+): 78.2%
  Average No. of Neurites: 34
Neuronal cells (pc12); 5 μg/ml
  % Protection in formation of Neurites (w.r.t. MPP+): 58.2%
  Average No. of Neurites: 30
MPO; 0.01 μg/mL
  % Change of Biomarkers markers (wrt Control) MPO: 1.7%
MPO; 0.1 μg/mL
  % Change of Biomarkers markers (wrt Control) MPO: −64%
MPO; 1 μg/mL
  % Change of Biomarkers markers (wrt Control) MPO: −45.9%
MPO; 10 μg/mL
  % Change of Biomarkers markers (wrt Control) MPO: 0%
MPO; 25 μg/mL
  % Change of Biomarkers markers (wrt Control) MPO: 0%
RAGE; 0.01 μg/mL
  % Change of Biomarkers markers (wrt Control) RAGE: −19.3%
RAGE; 0.1 μg/mL
  % Change of Biomarkers markers (wrt Control) RAGE: 0%
RAGE; 1 μg/mL
  % Change of Biomarkers markers (wrt Control) RAGE: −19.3%
RAGE; 10 μg/mL
  % Change of Biomarkers markers (wrt Control) RAGE: 16.3%
RAGE; 25 μg/mL
  % Change of Biomarkers markers (wrt Control) RAGE: −3%
b-NGF; 0.01 μg/mL
  % Change of Biomarkers markers (wrt Control) b-NGF: 0%
b-NGF; 0.1 μg/mL
  % Change of Biomarkers markers (wrt Control) b-NGF: 0%
b-NGF; 1 μg/mL
  % Change of Biomarkers markers (wrt Control) b-NGF: −9%
b-NGF; 10 μg/mL
  % Change of Biomarkers markers (wrt Control) b-NGF: 41.1%
b-NGF; 25 μg/mL
  % Change of Biomarkers markers (wrt Control) b-NGF: 88.9%
Swiss albino mice; G4: 0.5 mg/kg i.v. qdx14, compared with G2 (scopolamine)
  % increase in Transfer Latency Time: 33.2%
Swiss albino mice; G4: 0.5 mg/kg i.v. qdx14, scopolamine 2.5 mg/kg i.p.
  Mean Transfer Latency Time: 85.26 s
Swiss albino mice; G4: 0.5 mg/kg i.v. qdx14, scopolamine 2.5 mg/kg i.p., listed as SEQ ID NO 1
  Mean Transfer Latency Time: 85.26 ± 6.52 s
Swiss albino mice; G5: 0.25 mg/kg i.v. qdx14, compared with G2 (scopolamine)
  % increase in Transfer Latency Time: 29.4%
Swiss albino mice; G5: 0.25 mg/kg i.v. qdx14, scopolamine 2.5 mg/kg i.p.
  Mean Transfer Latency Time: 80.58 s
Swiss albino mice; G5: 0.25 mg/kg i.v. qdx14, scopolamine 2.5 mg/kg i.p., listed as SEQ ID NO 1
  Mean Transfer Latency Time: 80.58 ± 9.08 s
Swiss albino mice; G6: 0.125 mg/kg i.v. qdx14, compared with G2 (scopolamine)
  % increase in Transfer Latency Time: 24.9%
Swiss albino mice; G6: 0.125 mg/kg i.v. qdx14, scopolamine 2.5 mg/kg i.p.
  Mean Transfer Latency Time: 75.81 s
Swiss albino mice; G6: 0.125 mg/kg i.v. qdx14, scopolamine 2.5 mg/kg i.p., listed as SEQ ID NO 1
  Mean Transfer Latency Time: 75.81 ± 7.75 s
